From the supplement of paper PMC6755084 come the findings set out here.

To fix the notation:
B1: minF1; the commonest letter at each place (parent)
chain: GAGACCGCAACTGAAAAGTTGTTATCAGAAATGGATGGGTTGAATTTCTGCACGTAGAAGCAAAAGGC

Variants of B1 are the subject of the data set. Put plainly: fraction ligated after 30 min (ligated reads / total reads); higher = more ligase activity. As to conditions: with F1*subA RNA substrate (template-directed ligation), 42 °C. The procedure, abridged:
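RNAs for minimized ligase ribozyme variants were transcribed with T7 from PCR-amplified oligo-pool templates and purified on gels. Ligated and unligated species were resolved on gels, converted to cDNA with barcoded primers, and read on a MiSeq with core bases filtered at quality ≥30. Fraction ligated per variant is the ratio of ligated reads to total reads.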
Regarding A27G A35C, the fraction ligated is 0.0489.

As for A27C, the fraction ligated worked out at 0.694.

A27G: the fraction ligated stood at 0.803.

With A27T, the fraction ligated stood at 0.824.

Regarding G28C A29T A30T A31T, the fraction ligated amounted to 0.752.

C26G A27G: the fraction ligated was 0.0369.

In the case of C26G A27T, the fraction ligated was determined as 0.0725.

For the variant C26G A27C, the fraction ligated came out at 0.0501.

For the variant G28T A35G, the fraction ligated amounted to 0.437.

Consider G28T A35T, for which the fraction ligated came to 0.051.

In the case of G28T A35C, the fraction ligated came to 0.0723.

C26T T36G: the fraction ligated stood at 0.0188.

Consider C26T T36C, for which the fraction ligated was 0.00419.

Consider C26T T36A, for which the fraction ligated stood at 0.0132.

Consider A27T G37A, for which the fraction ligated is 0.0217.

As for A27T G37C, the fraction ligated turned out to be 0.00946.

On to A27T G37T, for which the fraction ligated turned out to be 0.0547.

Take C26T G28A: the fraction ligated is 0.362.

For the variant C26T G28C, the fraction ligated amounted to 0.61.

Consider C26T G28T, for which the fraction ligated was 0.55.

Turning to C26G A29G, the fraction ligated is 0.0311.

C26G A29C: the fraction ligated is 0.0431.

On to C26G A29T, for which the fraction ligated was 0.0347.

As to A29C A31C, the fraction ligated stood at 0.791.

Take A29C A31T: the fraction ligated is 0.842.

On to A29C A31G, for which the fraction ligated was found to be 0.808.

Consider A27T A35C, for which the fraction ligated came out at 0.406.

Regarding A27T A35G, the fraction ligated was determined as 0.384.

In the case of A27T A35T, the fraction ligated worked out at 0.102.

Regarding A27C A29C, the fraction ligated was found to be 0.623.

As to A27C A29G, the fraction ligated amounted to 0.61.

Consider A27C A29T, for which the fraction ligated amounted to 0.501.

On to A27G G28T, for which the fraction ligated was found to be 0.824.

For A27G G28C, the fraction ligated was 0.793.

With A27G G28A, the fraction ligated was 0.797.

For the variant A29C A43C, the fraction ligated came out at 0.0193.

For A29C A43T, the fraction ligated was found to be 0.0813.

In the case of A29C A43G, the fraction ligated was 0.0549.

As for G28T T32G, the fraction ligated stood at 0.0263.

On to G28T T32C, for which the fraction ligated was 0.0326.

With G28T T32A, the fraction ligated is 0.0381.

For the variant G28T G37C, the fraction ligated was determined as 0.00638.

On to G28T G37A, for which the fraction ligated was 0.00866.

Turning to G28T G37T, the fraction ligated turned out to be 0.0287.

For A27T T32A, the fraction ligated came to 0.0711.

For the variant A27T T32G, the fraction ligated came out at 0.0604.

As for A27T T32C, the fraction ligated was 0.0794.

Regarding G28A G34C, the fraction ligated is 0.00587.

Take G28A G34T: the fraction ligated came out at 0.00746.

Regarding G28A G34A, the fraction ligated was determined as 0.0882.

A27G A31C: the fraction ligated came out at 0.802.

With A27G A31T, the fraction ligated amounted to 0.816.

On to A27G A31G, for which the fraction ligated was determined as 0.806.

As for G28A G37A, the fraction ligated was determined as 0.00676.

As to G28A G37C, the fraction ligated was determined as 0.00899.

On to G28A G37T, for which the fraction ligated was determined as 0.0166.

Take A27C G28C: the fraction ligated turned out to be 0.61.

Consider A27C G28T, for which the fraction ligated came to 0.628.

Consider A27C G28A, for which the fraction ligated was 0.503.

With A27T G42T, the fraction ligated came to 0.444.

For A27T G42C, the fraction ligated amounted to 0.0569.

Regarding A27T G42A, the fraction ligated came out at 0.698.

Regarding C26T A27T, the fraction ligated came to 0.816.

As for C26T A27C, the fraction ligated turned out to be 0.79.

In the case of C26T A27G, the fraction ligated is 0.544.

Take C26G A35G: the fraction ligated came to 0.00566.

Take C26G A35T: the fraction ligated amounted to 0.000597.

In the case of C26G A35C, the fraction ligated amounted to 0.00486.

For the variant G28A T36A, the fraction ligated was 0.0244.

In the case of G28A T36G, the fraction ligated was found to be 0.0443.

For G28A T36C, the fraction ligated amounted to 0.0146.

As to A27C T32G, the fraction ligated was 0.0136.

A27C T32A: the fraction ligated was 0.0275.

With A27C T32C, the fraction ligated was found to be 0.0159.

As for G28T G33T, the fraction ligated worked out at 0.725.

Regarding G28T G33C, the fraction ligated was found to be 0.764.

G28T G33A: the fraction ligated stood at 0.814.

In the case of G28A A31G, the fraction ligated amounted to 0.799.

Turning to G28A A31C, the fraction ligated stood at 0.802.

In the case of G28A A31T, the fraction ligated is 0.821.

Consider A27C A31G, for which the fraction ligated was found to be 0.687.

For A27C A31C, the fraction ligated is 0.421.

As for A27C A31T, the fraction ligated was determined as 0.455.
